Source: US20060240015A1 (Kyowa Kirin, published 2006)

Key:
human insulin = biological target: T1, human insulin (human, UniProt P01308 25-54; P01308 90-110); assay: competitive ELISA, methylated BSA-hIGF-I or methylated BSA-hIGF-II coated, insulin in solution
T1 construct: Bought
From the text: Cross reactivity of the purified anti-hIGF rat antibody KM1468 with hIGF-II and human insulin was examined by the competitive ELISA shown below. As the antigens, hIGF-I (manufactured by Pepro Tech), hIGF-II (manufactured by Pepro Tech) and human insulin (manufactured Wako Pure Chemical Industries) were used.
The methylated BSA-hIGF-I antigen prepared in Reference Example 1(1) or a methylated BSA-hIGF-II antigen prepared in the same manner as in Reference Example 1(1) was immobilized on a plate in accordance with the method shown in Reference Example 1(4), at a concentration of 0.1 μg/ml in the case of the methylated BSA-hIGF-I antigen, or at a concentration of 1.0 μg/ml in the case of the methylated BSA-hIGF-II antigen, KM1468 diluted to 0.6 μg/ml was dispensed at 25 μl/well, and then each of 4-fold serial dilutions of hIGF-I, hIGF-II or human insulin prepared by starting from 20 μg/ml was dispensed at 25 μl/well, mixed and left at room temperature for 1 hour. After the reaction and subsequent washing with Tween-PBS, 1000-fold diluted peroxidase-labeled rabbit anti-rat Ig antibody (manufactured by DAKO) was added at 50 μl/well as the secondary antibody in the case of the anti-hIGF antibody KM1468. […] The results are represented by relative values (%) wherein OD415 when an antibody was added alone was defined as 100.

[1] = biological target: T2, human insulin-like growth factor-II (human, UniProt P01344 25-91); assay: SPR (Biacore 2000), hIGF-II amine-coupled on CM-5, antibody as analyte, 25 C
T2 construct: also called hIGF-II; IGF-II
Experimental: (§1) In order to analyze the binding activity of the anti-hIGF rat monoclonal KM1468 to an antigen hIGF-I or hIGF-II, the binding affinities of the anti-hIGF rat monoclonal KM1468, a commercially available anti-hIGF-I antibody sm1.2 and a commercially available anti-hIGF-II antibody S1F2 to hIGF-I and hIGF-II were assayed in the following manner using the biosensor Biacore 2000 (manufactured by Biacore) utilizing surface plasmon resonance. For the diluting samples and as the reaction buffers in measurement, HBS-EP (10 mM HEPES, 150 mM NaCl, 3 mM EDTA, 0.005% Tween 20, pH 7.4) (manufactured by Biacore) was used.
(§2) Using an amine coupling (manufactured by Biacore), hIGF-I or hIGF-II were immobilized at 36.0 pg/mm² or 41.7 pg/mm², respectively, on sensor tip CM-5 (manufactured by Biacore). After 3 types of the antibodies which were diluted in 6 steps in 2-fold serial dilutions starting from 20 μg/ml as analytes, were added at a flow rate of 20 μl/minute for 2 minutes, the dissociation of the analytes was subsequently observed over 5 minutes. The reaction was carried out at 25° C. Based on the reaction curves at various concentrations, association constant Kass and dissociation constant Kdiss were calculated, to calculate the binding constant KA (M⁻¹) of these various antibodies. The binding constant KA is calculated by KA=Kass/Kdiss.

[2] = biological target: T2, human insulin-like growth factor-II; assay: SPR (Biacore 2000)
[3] = biological target: T3, human insulin-like growth factor-I (human, UniProt P05019 49-118); assay: SPR (Biacore 2000)
T3 construct: mature; In the ELISAs it was coated as a conjugate with methylated BSA; in Biacore it was amine-coupled to a CM-5 chip; also called hIGF-I; IGF-I

[4] = biological target: T4, partial peptide of hIGF-I corresponding to 1st to 18th (human); assay: competitive ELISA, methylated BSA-hIGF-I coated, peptide in solution
T4 construct: also called p1-18
T4 peptide: GPETLSGAELVDALQFVC

[5] = biological target: T5, partial peptide of hIGF-I corresponding to 61st to 70th (human); assay: as above
T5 construct: also called p61-70
T5 peptide: CAPLKPAKSA

[6] = biological target: T6, partial peptide of hIGF-I corresponding to 52nd to 70th (human); assay: as above
T6 construct: also called p52-70
T6 peptide: CDLRRLEMYAAPLKPAKSA

[7] = biological target: T7, partial peptide of hIGF-I corresponding to 41st to 56th having an inner Cys (human); assay: as above
T7 construct: also called p41-56C; p41-56c
T7 peptide: CTGIVDECCFRSCDLRR

[8] = biological target: T8, partial peptide of hIGF-I corresponding to 14th to 30th (human); assay: as above
T8 construct: also called p14-30
T8 peptide: CLQFVAGDRGFYFNKPTG

[9] = biological target: T9, partial peptide of hIGF-I corresponding to 41st to 56th (human); assay: as above
T9 construct: also called p41-56
T9 peptide: CTGIVDEAAFRSADLRR

[10] = biological target: T10, partial peptide of hIGF-I corresponding to 29th to 41st (human); assay: as above
T10 construct: also called p29-41
T10 peptide: CTGYGSSSRRAPQT

[11] = biological target: T11, partial peptide of hIGF-I corresponding to 36th to 47th (human); assay: as above
T11 construct: also called p36-47
T11 peptide: RRAPQTGIVDEC

[12] = biological target: T12, partial peptide of hIGF-I corresponding to 24th to 35th (human); assay: as above
T12 construct: also called p24-35
T12 peptide: CYFNKPTGYGSSS

[13] = biological target: T3, human insulin-like growth factor-I; assay: SPR (Biacore 2000), hIGF-I amine-coupled on CM-5, antibody as analyte, 25 C
Experimental: as §1, §2

T2 sequence (P01344 25-91 limits assumed): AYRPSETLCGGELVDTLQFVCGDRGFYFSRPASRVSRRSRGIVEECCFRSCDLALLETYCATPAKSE
T3 sequence (P05019 49-118): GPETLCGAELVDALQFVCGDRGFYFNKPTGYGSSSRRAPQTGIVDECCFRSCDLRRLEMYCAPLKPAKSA
T1 sequence (P01308 25-54 limits assumed, chain 1 of 2): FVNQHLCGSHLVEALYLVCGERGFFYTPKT
T1 sequence (P01308 90-110 limits assumed, chain 2 of 2): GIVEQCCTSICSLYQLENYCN

B1: anti-hIGF rat monoclonal antibody KM1468 (antibody, rat IgG2b, V domains shown)
VH: EVHLVESGGGLVQPGRSLKLSCAASGFTFSNYYMTWVRQAPTKGLEWVAYISSGGGSTYYRDSVKGRFTISRDNAKSTLYLQMDSLRSEDTATYYCTTEDYGYWFAYWGQGTLVTVSS
VL: EIVLTQSPTTMAASPGEKVTITCRASSSVSYMHWFQQKSGTSPKPWIYGTSKLASGVPDRFSGSGSGTSYSLTISSMEAEDAATYYCLQRSSYPPTFGAGTKLELK
notes: Rat IgG2b, kappa; Hybridoma FERM BP-7978; also called anti-hIGF antibody KM1468; anti-hIGF rat antibody KM1468
Human insulin
  binding result: no binding
[1]
  Ka: 8.63e+09 M⁻¹
[2]
  KA relative to S1F2 (fold): ~3.6 fold
  KA relative to sm1.2 (fold): ~120 fold
[3]
  KA relative to S1F2 (fold): ~18 fold
  KA relative to sm1.2 (fold): ~42 fold
[4]
  binding result: no binding (tested: 3-fold serial dilutions from 50 µg/mL)
[5]
  binding result: no binding (tested: 3-fold serial dilutions from 50 µg/mL)
[6]
  binding result: no binding (tested: 3-fold serial dilutions from 50 µg/mL)
[7]
  binding result: no binding (tested: 3-fold serial dilutions from 50 µg/mL)
[8]
  binding result: no binding (tested: 3-fold serial dilutions from 50 µg/mL)
[9]
  binding result: no binding (tested: 3-fold serial dilutions from 50 µg/mL)
[10]
  binding result: no binding (tested: 3-fold serial dilutions from 50 µg/mL)
[11]
  binding result: no binding (tested: 3-fold serial dilutions from 50 µg/mL)
[12]
  binding result: no binding (tested: 3-fold serial dilutions from 50 µg/mL)
[13]
  Ka: 7.86e+09 M⁻¹
